Molecular target: the molecule itself
Assay: cryo-EM structure; Dmc1 2.5 uM with 0.125 uM 96-mer ssDNA in HR buffer with 1.5 mM CaCl2 and 5 mM ADP, 30°C 5 min, then 8 mM CHAPSO; helical filament in the ADP-bound state (interdigitated filaments masked to a single filament); filament formation required the ssDNA

B1: S. cerevisiae Dmc1 (natural protein)
chain: MSVTGTEIDSDTAKNILSVDELQNYGINASDLQKLKSGGIYTVNTVLSTTRRHLCKIKGLSEVKVEKIKEAAGKIIQVGFIPATVQLDIRQRVYSLSTGSKQLDSILGGGIMTMSITEVFGEFRCGKTQMSHTLCVTTQLPREMGGGEGKVAYIDTEGTFRPERIKQIAEGYELDPESCLANVSYARALNSEHQMELVEQLGEELSSGDYRLIVVDSIMANFRVDYCGRGELSERQQKLNQHLFKLNRLAEEFNVAVFLTNQVQSDPGASALFASADGRKPIGGHVLAHASATRILLRKGRGDERVAKLQDSPDMPEKECVYVIGEKGITDSSD
notes: Dmc1 meiotic recombinase, Saccharomyces cerevisiae; expressed from a plasmid encoding 6XHisDmc1; Stood in the assay as a helical filament of many protomers, assembled with a 96-nt ssDNA, ADP, Mg2+ and Ca2+; no removal of the His tag is described; also called Dmc1-ADP; source: E. coli BL21 (DE3) Rosetta2, purified (Talon resin, heparin sepharose)
binding result: binds

Reference: publication doi:10.1101/2025.03.19.644215 (bioRxiv, 2025)
